Experimental data from US8063012B2, “Neuroprotective peptide inhibitors of AP-1 signaling and uses therefor” (Phylogica Limited, priority 2006, dated 2011).

Assays:
[1] = test system: AP-1 luciferase reporter in K562/AP1-Luc cells; test: Luciferase reporter gene assay of AP-1 dependent transcriptional activity; type: cell-based; conditions: pcDNA3-peptide transfection, 48 hours, normalised to renilla, vs pcDNA3 vector
Description: Phylomer™ peptides that inhibit an AP-1 complex formation as described in Example 1 were tested for their ability to decrease AP-1 controlled reporter expression (since Jun dimers are AP-1 moieties). A transient transfection assay in which the expression of each clone was plasmid driven was employed, thereby avoiding the synthesis of large numbers of peptides.
The K562 cell line was stably-transfected with the AP-1 luciferase reporter (AP1-Luc) of the Mercury Pathway Profiling kit (Clontech, U.S.A.), and the clonal cell line K562/AP1-Luc was established. In 6-well tissue culture plate format, K562/AP1-Luc cells were transfected with either pcDNA3 control, pcDNA3-JunDN (a dominant negative mutant of c-Jun), or pcDNA3-peptide, using Lipofectamine2000 (Life Technologies) according to manufacturer's instructions. Transfection reactions were incubated for 48 hours, cells collected and protein lysates extracted for luciferase assay according to Mercury Pathway Profiling kit and associated protocols.
Luciferase assays were performed in independent triplicates, and results for each peptide subjected to statistical analysis (SPSS software package) to determine if they were different to JunDN (positive control for AP-1 inhibition) or pcDNA-3 (negative control for AP-1 inhibition).
All AP-1 luciferase values were normalised to the renilla expression from a cotransfection control. Under these experimental conditions, approximately 30% of Phylomer™ peptides decreased AP-1 reporter activity by at least 50% when compared to the vector-only control (i.e., pcDNA3 vector). More particularly, the peptides designated PYC35, PYC36, PYC38/39 and PYC41 reduced AP-1 reporter activity to approximately 35%, 44%, 47% and 48%, respectively of the level observed for the control sample.

[2] = biological target: T1, interaction between JUN1 and JunZ (c-Jun dimerization) (Homo sapiens, UniProt P05412); test: Reverse-2-hybrid screening for inhibition of c-Jun dimerization in yeast; type: cell-based; conditions: for yeast survival on media for counter-selection against AP-1 complex formation viz. c-Jun dimerization: initial reverse-two-hybrid screen, clones expressed from pYTB3; for recapitulation of the disruption phenotype: plasmid clones rescued and re-transformed, two assays
T1 construct: Partial fragments of c-Jun i.e., JunZ (774-927 bp) and Jun1 (558-1002 bp); expressed in transfected cells; host or cells: Saccharomyces cerevisiae strain PRT480, mated with library strain PRT51
Source text: The yeast two hybrid system described by Vidal.M., In: The Yeast Two Hybrid System (eds. P. Bartel and S. Fields), Oxford University Press, New York (1997), was modified to add another counter selectable marker (CYH2) and to allow flexible titration of stringency by adjustment of sugar concentrations in the screening media.
Partial fragments of c-Jun i.e., JunZ (774-927 bp) and Jun1 (558-1002 bp), were cloned into yeast two-hybrid vectors pDD (a kanamycin-resistant variant of pGilda bait vector) and pJFK (pYesTrp prey vector (Invitrogen) modified by replacing the TRP1 yeast selection gene with HIS5), respectively, before co-transforming into Saccharomyces cerevisiae strain PRT480 (MATα, his3, trp1, ura3, 4 LexA-LEU2, lys2::3 cIop-LYS2, CAN^R, CYH2^R, ade2::2 LexA-CYH2-ZEO, his5::2 LexA-URA3-G418) using a standard lithium-acetate based chemical transformation protocol.
The Phylomer™ peptide library was transformed into S. cerevisiae strain PRT51 (MATα, his3, trp1, ura3, 6 LexA-LEU2, lys2::3 cIop-LYS2, CYH2^R, ade2::G418-pZero-ade2, met15::Zeo-pBLUE-met15, his5::hygro), using a high-efficiency lithium acetate-based chemical transformation protocol, slightly modified to maximize the number of transformants.
Bait/prey plasmid containing PRT480 haploids (10^8 cells) were mated with the Phylomer™ library (10^7 c.f.u.) according to a liquid mating protocol for pretransformed libraries (Clontech, USA), and plated to HW^− minimal media (minimal media lacking histidine and tryptophan) to select for diploids. These plates were scraped after 2 days incubation at 30° C., and the cells were washed, resuspended 1:1 (v/v) in yeast freezing solution (65% v/v glycerol, 0.1M MgSO4, 25 mM Tris-Cl pH 8.0), and frozen at −80° C. in 1 ml aliquots.
To select peptides that block formation of an AP-1 complex requiring the interaction between JUN1 and JunZ, about 1.5×10^7 c.f.u Jun/Phylomer™ diploids were thawed and outgrown overnight in HW^− to achieve log-phase growth. The following day, 4×10^7 cells were plated onto counter-selective media: HWU^− (lacking histidine, tryptophan and uracil), containing supplements of 0.02% galactose (gal), 2% raffinose (raff), 0.2 μg/ml uracil, 0.06% (w/v) 5-Fluoroorotic acid (FOA), 5 μg/ml cycloheximide. These plates were incubated for 7 days, then colonies were picked to HWU^− 0.02% gal, 2% raff, and then to HWL^− (lacking histidine, tryptophan and leucine) 0.02% gal, 2% raff to confirm blocking phenotype.
These included transformants comprising the clones designated PYC19 [DNA sequence set forth in SEQ ID NO: 26; encoded amino acid sequence set forth in SEQ ID NO: 27 (with FLAG epitope) and 28 (without FLAG epitope)]; PYC35 [DNA sequence set forth in SEQ ID NO: 34; encoded amino acid sequence set forth in SEQ ID NO: 35 (with FLAG epitope) and 36 (without FLAG epitope)]; PYC36 [DNA sequence set forth in SEQ ID NO: 43; encoded amino acid sequence set forth in SEQ ID NO: 44 (with FLAG epitope) and 45 (without FLAG epitope)]; PYC38/39 [DNA sequence set forth in SEQ ID NO: 52; encoded amino acid sequence set forth in SEQ ID NO: 53 (with FLAG epitope) and 54 (without FLAG epitope)]; and PYC41 [DNA sequence set forth in SEQ ID NO: 60; encoded amino acid sequence set forth in SEQ ID NO: 61 (with FLAG epitope) and 62 (without FLAG epitope)].
Subsequently, the individual plasmid clones were rescued from the yeast and re-transformed to confirm the disruption phenotype; 63% of the primary “hits”, including PYC 19, PYC35, […], PYC38/39 and PYC41, were positive in two assays for recapitulation of the phenotype.

[3] = test system: neurons around the lesion in the somatosensory cortex; test: Acute cortical injury (focal traumatic brain injury), immunoreactivity in perilesion area; type: in vivo; conditions: acute cortical injury of rat brain tissue in situ
Description: The ability of AP-1 signaling-inhibitory peptides to inhibit neuronal apoptosis was assessed by loss of MAP2 immunoreactivity in a focal model of traumatic brain injury (Chung et al., J. Neuroscience 23, 3336-3342, 2003; King et al., Neuropathol Appl Neurobiol. 27, 115-126, 2001).
Rats were subjected to acute cortical injury as previously described by Chung et al., J. Neuroscience 23, 3336-3342 (2003) and King et al., Neuropathol Appl Neurobiol. 27, 115-126 (2001). Briefly, male 240 g Hooded-Wistar rats were deeply anaesthetized using Isofluorane (2-3%) and were given an analgesic (Meloxycam, […]), by subcutaneous injection. Animals were immobilized in a Stoelting stereotactic frame, and a 21 gauge blunt Hamilton syringe was inserted into the Par1 region of the somatosensory cortex to a depth of 2 mm and was left in place for 10 minutes. Then, 0.5 μl of 5 μM peptide was administered through the syringe at a rate of 0.05 μl/min. Peptide (10 μl) was applied to 1 mm^2 of Gelfoam, which was implanted before suturing. At 1 day post-injury (PI), rats were deeply anaesthetized with sodium pentobarbital (60 mg/kg), then perfused transcardially with a 4% paraformalydehyde and 4% sucrose fixative solution in 0.01M PBS. Brains were removed and cryoprotected in 18% and 30% sucrose solutions, respectively and 40 μm coronal sections were collected serially through the injury site for immunohistochemical labelling. All animal procedures were approved by the University of Tasmania Animal Ethics Committee (Permit A008878).
Sections were labelled with Nissl Red, Nuclear Yellow and anti-MAP2 to allow a quantitative assessment of neuronal loss around the lesion. Sections from the lesion centre and 200 μm anterior and posterior to the centre of the injury, at layer III of the neocortex were included in the analysis and the area of MAP2 loss was scored by blinded observers. Three sections from each of three animals were examined for each treatment and significance assessed by ANOVA and post-hoc comparison (Tukey test).
All data are presented as mean±standard error. […]

T1 sequence (P05412 259-309 limits assumed): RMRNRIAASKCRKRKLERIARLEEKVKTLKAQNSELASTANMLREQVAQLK
T1 sequence (P05412 187-331 limits assumed): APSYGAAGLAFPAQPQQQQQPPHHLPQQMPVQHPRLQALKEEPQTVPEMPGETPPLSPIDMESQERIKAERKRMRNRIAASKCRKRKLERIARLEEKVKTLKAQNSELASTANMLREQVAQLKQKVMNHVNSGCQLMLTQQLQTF

| recapitulation of the disruption phenotype [2] | Substance | AP-1 reporter activity, of the level observed for the control sample [1] | yeast survival on media for counter-selection against AP-1 complex formation viz. c-Jun dimerization [2] | astrogliosis as determined by glial fibrillary acidic protein immunoreactivity [3] | loss of neurons as determined by MAP2 immunoreactivity [3] | microglial activation as determined by ferritin immunoreactivity [3] |
| --- | --- | --- | --- | --- | --- | --- |
| positive | PYC36: Phylomer clone; encoded amino acid sequence SEQ ID NO: 44 (with FLAG epitope) and 45 (without FLAG epitope) (GLQGRRRQGYQSIKP; PYC36L peptide) | ~44% | allowed yeast survival | – | – | – |
| positive | PYC35: Phylomer clone; encoded amino acid sequence SEQ ID NO: 35 (with FLAG epitope) and 36 (without FLAG epitope) (AYQSIRSGGIESSSKRER; PYC35L peptide) | approximately 35% | allowed yeast survival | reduced astrogliosis | reduced loss of neurons | reduced microglial activation |
| positive | PYC41: Phylomer clone; encoded amino acid sequence SEQ ID NO: 61 (with FLAG epitope) and 62 (without FLAG epitope) (VSINQEHHRLLPL; PYC41L peptide) | ~48% | allowed yeast survival | – | – | – |
| positive | PYC38/39: Phylomer clone; encoded amino acid sequence SEQ ID NO: 53 (with FLAG epitope) and 54 (without FLAG epitope) (GLQGRRQPGQQPQGRWSGRALPAHR; PYC38/39L peptide) | ~47% | allowed yeast survival | – | – | – |
